Experimental data published in patent EP2546652A1.

Assays:
[1] = target: nervous necrosis virus (NNV) particles (nervous necrosis virus (from grouper)); assay: immunomagnetic reduction (IMR), anti-NNV magnetic nanoparticles mixed with NNV solution; value at 5 TCID50/ml NNV
[2] = target: nervous necrosis virus (NNV) particles (nervous necrosis virus (from grouper)); assay: immunomagnetic reduction (IMR), anti-NNV magnetic nanoparticles mixed with NNV solution; value at 10^7 TCID50/ml NNV
[3] = target: nervous necrosis virus (NNV) particles (nervous necrosis virus (from grouper)); assay: immunomagnetic reduction (IMR), logistic fit of IMR (%) against NNV concentration

nervous necrosis virus antibody (anti-nervous necrosis virus), covalently bound to the dextran shell of Fe3O4 magnetic nanoparticles
IMR signal [1]: 0.84% | IMR signal [2]: 3.04% | B (high-end value of the IMR signal, logistic fit) [3]: 3.47% | φo (fitting parameter of the logistic function of IMR signal against NNV concentration) [3]: 26700 TCID50/ml
